From the supplement of paper PMC10567573

Experiment: protein stability index of a GFP-peptide fusion (GPS, HEK-293T) (PSI 1-6); higher = more stable
Settings: c terminus: native
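Also: lentivirally expressed fusion library, cells FACS-sorted into six equal-sized GFP/DsRed ratio bins, PSI computed from sequencing read fractions per bin weighted by bin number.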

B1: BEX2 addS (peptide)
chain: HSLRAVSTDPPHHDHHDEFCLMPS
protein stability index (parent: NP_116010.1): 3.84

B2: POLD2 addS (peptide)
chain: CQPISFSGFGAEDDDLGGLGLGPS
protein stability index (parent: NP_006221.1): 2.6

B3: TRPA1 addS (peptide)
chain: EQRNSRWNTVLRAVKAKTHHLEPS
protein stability index (parent: NP_015628.1): 4.6

B4: TRPA1 addH (peptide)
chain: EQRNSRWNTVLRAVKAKTHHLEPH
protein stability index (parent: NP_015628.1): 5.05

B5: SNF8 addS (peptide)
chain: LPALFTDLYSQEITAEEAREALPS
protein stability index (parent: NP_009172.2): 4.4

B6: SNF8 addH (peptide)
chain: LPALFTDLYSQEITAEEAREALPH
protein stability index (parent: NP_009172.2): 4.88

B7: POLD2 addH (peptide)
chain: CQPISFSGFGAEDDDLGGLGLGPH
protein stability index (parent: NP_006221.1): 2.24

B8: PSMB5 addH (peptide)
chain: DGWIRVSSDNVADLHEKYSGSTPH
protein stability index (parent: NP_002788.1): 3.83

B9: PSMB5 addS (peptide)
chain: DGWIRVSSDNVADLHEKYSGSTPS
protein stability index (parent: NP_002788.1): 3.98
